Measured values published in doi:10.1101/2022.02.02.478833 (bioRxiv, 2022).

T1: MOTH domain of human Otoraplin (18-128) (human, UniProt Q9NRC9 18-128, [U-15N]-enriched)
T1 sequence (looked up): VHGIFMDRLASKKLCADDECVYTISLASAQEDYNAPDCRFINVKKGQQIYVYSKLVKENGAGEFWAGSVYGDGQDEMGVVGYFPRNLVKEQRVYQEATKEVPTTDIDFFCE


What was measured:
[1] = target: T1, MOTH domain of human Otoraplin (18-128); experiment: NMR titration
[2] = target: human TANGO1 (21-131) cargo-recognition (MOTH) domain (human) (UniProt Q5JRA6); experiment: NMR titration

Binder	Kd [1]	koff [1]	Kd [2]	koff [2]
VPPPVPPRRR (peptide, UniProt Q07889 1149-1158, looked up) [class II PPII helix peptide SOS1 (1149-1158)]	1300 µM	350000 s⁻¹		
FHNYNVEELLGFLELYNSAA [synthetic peptide of residues 132 to 151 of human TANGO1]			321 µM	1100 s⁻¹
